Reference: patent publication US20090208454A1 (AMBRX, published 2009)

Target: T1, IFNAR2 extracellular domain (UniProt P48551 27-243, limits assumed)
T1 construct: extracellular domain; It was immobilized on a CM5 Biacore chip by lysine-specific coupling; also called IFNAR2ECD; IFNAR ECD
T1 sequence (looked up): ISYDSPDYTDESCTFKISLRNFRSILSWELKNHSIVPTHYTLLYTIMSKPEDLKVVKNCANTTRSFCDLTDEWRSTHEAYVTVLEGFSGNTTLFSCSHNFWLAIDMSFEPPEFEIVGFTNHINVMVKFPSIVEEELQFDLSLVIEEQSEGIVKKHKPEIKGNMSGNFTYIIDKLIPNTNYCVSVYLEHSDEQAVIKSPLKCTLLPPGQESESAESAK
Test: Biacore SPR, IFNAR2 ECD immobilized on CM5 chip, IFN injected, 1:1 model, average Kd
Procedure: The refolding reaction was then concentrated to 25 ml using an Amicon stirring cell, and dialyzed overnight against 20 mM Tris, pH 8, 20 mM NaCl, 10% glycerol. Monomeric refolded IFNAR ECD was purified on HP Q Sepharose using the AKTA FPLC system (Amersham). Purified IFNAR2ECD was immobilized on CM5 Biacore chip using a lysine-specific coupling procedure recommended by the manufacturer. About 200 RUs of functional protein were immobilized. Various concentrations of IFN beta variants in HBS-EP buffer (Biacore) were injected at a flow rate of 50 mcl/minute over the flowcell containing immobilized IFNAR2, and a control flowcell containing immobilized bovine serum albumin. Sensograms generated were fit to the 1:1 interaction model to calculate kₒₙ, koff and Kd values using BiaEvaluation software (Biacore).

B1: (C17S)-IFNβ (ligand)
chain: MSYNLLGFLQRSSNFQSQKLLWQLNGRLEYCLKDRMNFDIPEEIKQLQQFQKEDAALTIYEMLQNIFAIFRQDSSSTGWNETIVENLLANVYHQINHLKTVLEEKLEKEDFTRGKLMSSLHLKRYYGRILHYLKAKEYSHCAWTIVRVEILRNFYFINRLTGYLRN
notes: also called IFN beta with C17S substitution; (C17S)-IFN beta
  Kd: 0.8 nM
